Experimental data reported in paper doi:10.1101/2023.05.08.539930.

Biological target: MSH2;MSH3 (Homo sapiens;Homo sapiens, UniProt P43246;P20585 1-934;1-1137, |)
Assay: FRET

B1: 70 bp (CAG)1 FRET DNA (dsDNA)
DNA 1: CACACGTTCCGAGATATCCTAGCAAGTGATCAGCGTCTATGTAGCTCAAGAGTTCGACTCAGCCTACACCGAG
DNA 2: CTCGGTGTAGGCTGAGTCGAACTCTTGAGCTACATAGACGATCACTTGCTAGGATATCTCGGAACGTGTG
modifications: 5' digoxigenin on both strands, anti-digoxigenin Fab end-blocked
B1: binds.

B2: 70 bp (CAG)4 FRET DNA (dsDNA)
DNA 1: CACACGTTCCGAGATATCCTAGCAAGTGATCAGCAGCAGCAGCGTCTATGTAGCTCAAGAGTTCGACTCAGCCTACACCGAG
DNA 2: B1 DNA 2
modifications: 5' digoxigenin on both strands, anti-digoxigenin Fab end-blocked
B2: binds.

B3: 70 bp (CAG)2 FRET DNA (dsDNA)
DNA 1: CACACGTTCCGAGATATCCTAGCAAGTGATCAGCAGCGTCTATGTAGCTCAAGAGTTCGACTCAGCCTACACCGAG
DNA 2: B1 DNA 2
modifications: 5' digoxigenin on both strands, anti-digoxigenin Fab end-blocked
B3: binds.
